Experimental data from patent US11369662B2 (The Medical College of Wisconsin, Inc., priority 2014, dated 2022).

Biological target: T1, CXCR4 (Homo sapiens, UniProt P61073)
T1 construct: purchased Millipore
Assay: Radioligand displacement of 125I-CXCL12 from CXCR4 membrane preparations
Format: binding
Settings: relative to CXCL12WT
Procedure: Radioligand displacement. Commercial membrane preparations of cells stably expressing CXCR4 or CXCR7 were purchased (Millipore). Five micrograms of protein per point was incubated for 90 min on ice in binding buffer with 0.03 nM of […] as a tracer and increasing concentrations of competitor in a final 40 μL volume. Bound radioactivity was separated from free ligand by filtration, and receptor-bound radioactivity was quantified by gamma-radiation counting (Perkin-ECXCL121er Life and Analytical Sciences). Isolated membrane binding experiments were carried out in duplicate.

T1 sequence (P61073 whole entry): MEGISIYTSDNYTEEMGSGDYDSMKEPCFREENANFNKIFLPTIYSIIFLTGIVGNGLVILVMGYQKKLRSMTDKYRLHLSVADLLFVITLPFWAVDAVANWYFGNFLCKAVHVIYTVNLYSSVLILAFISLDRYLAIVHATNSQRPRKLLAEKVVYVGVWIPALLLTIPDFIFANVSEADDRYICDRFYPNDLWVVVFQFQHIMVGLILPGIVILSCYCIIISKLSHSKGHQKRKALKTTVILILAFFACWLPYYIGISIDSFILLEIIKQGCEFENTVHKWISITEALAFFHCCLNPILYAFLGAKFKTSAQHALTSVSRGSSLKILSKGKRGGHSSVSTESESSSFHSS

recognition of the full-length receptor in comparison to CXCL12WT: six-times weaker
Substance: CXCL122: constitutively dimeric variant of CXCL12 containing L36C/A65C mutations
